Results taken from the supplement of paper PMC9233669.
This sample holds only a part of the variants without activity.

What was measured:
biotinyl-Met-oxazolone = experiment: self-aminoacylation, catalytic enhancement (BMO) (fold over background); higher = more active; k-Seq, kA / k0A0; sequences stand for … in GGGAAUGGAUCCACAUCUACGAAUUC…UUCACUGCAGACUUGACGAAGCUG
Method in brief: (§1)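 Each biotinyl-aminoacyl-oxazolone, at 2–1250 μM, was incubated with mutagenized RNA pools (0.43 μM) carrying a 21-nt variable region. The 50 μL reactions contained HEPES/NaCl/KCl/MgCl2/CaCl2 buffer with 5% acetonitrile at pH 6.9–7.0 and ran for 90 minutes at room temperature. After streptavidin capture, RNA was measured by qPCR in triplicate and by Illumina sequencing, and catalytic enhancement was calculated as median kA over the uncatalyzed rate from a pseudo-first-order fit of per-sequence fraction reacted.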

biotinyl-Leu-oxazolone = experiment: self-aminoacylation, catalytic enhancement (BLO) (fold over background); higher = more active; k-Seq, kA / k0A0; sequences stand for … in GGGAAUGGAUCCACAUCUACGAAUUC…UUCACUGCAGACUUGACGAAGCUG
Method in brief: as §1

biotinyl-Val-oxazolone = experiment: self-aminoacylation, catalytic enhancement (BVO) (fold over background); higher = more active; k-Seq, kA / k0A0; sequences stand for … in GGGAAUGGAUCCACAUCUACGAAUUC…UUCACUGCAGACUUGACGAAGCUG
Method in brief: as §1

biotinyl-Trp-oxazolone = experiment: self-aminoacylation, catalytic enhancement (BWO) (fold over background); higher = more active; k-Seq, kA / k0A0; sequences stand for … in GGGAAUGGAUCCACAUCUACGAAUUC…UUCACUGCAGACUUGACGAAGCUG
Method in brief: as §1

biotinyl-Phe-oxazolone = experiment: self-aminoacylation, catalytic enhancement (BFO) (fold over background); higher = more active; k-Seq, kA / k0A0; sequences stand for … in GGGAAUGGAUCCACAUCUACGAAUUC…UUCACUGCAGACUUGACGAAGCUG
Method in brief: as §1

biotinyl-Ile-oxazolone = experiment: self-aminoacylation, catalytic enhancement (BIO) (fold over background); higher = more active; k-Seq, kA / k0A0; sequences stand for … in GGGAAUGGAUCCACAUCUACGAAUUC…UUCACUGCAGACUUGACGAAGCUG
Method in brief: as §1

| Sequence | self-aminoacylation (biotinyl-Met-oxazolone) | self-aminoacylation (biotinyl-Leu-oxazolone) | self-aminoacylation (biotinyl-Val-oxazolone) | self-aminoacylation (biotinyl-Trp-oxazolone) | self-aminoacylation (biotinyl-Phe-oxazolone) | self-aminoacylation (biotinyl-Ile-oxazolone) |
| --- | --- | --- | --- | --- | --- | --- |
| AUUACCCUGGUCACCGAGGGA [Fam2.1 aminoacylation ribozyme variant] | 2.27 | 1.83 | 2.39 | 3.76 | 0.887 | 1.67 |
| AUUACCCUGGUCAGCGAGGGA [Fam2.1 aminoacylation ribozyme variant] | 1.34 | 0.891 | 1.19 | 2.06 | 0.743 | 1.54 |
| AUUACCCUGGUCAGCUAGUGA [Fam2.1 aminoacylation ribozyme variant] | 3.32 | 3.32 | 2.34 | 3.12 | 6.76 | 2.53 |
| AUUACCCUGGUCAUAAAGUGA [Fam2.1 aminoacylation ribozyme variant] | 11.1 | 10.3 | 5.16 | 13.4 | 43.9 | 4.88 |
| AUUACCCUGGUCAUAGAGUAA [Fam2.1 aminoacylation ribozyme variant] | 1.17 | 1.37 | 1.29 | 0.757 | 0.983 | 1.44 |
| AUUACCCUGGUCAUAGAGUGU [Fam2.1 aminoacylation ribozyme variant] | 4.07 | 3.73 | 2.58 | 4.8 | 13.5 | 2.08 |
| AUUACCCUGGUCAUCAAUUGA [Fam2.1 aminoacylation ribozyme variant] | 0.948 | 0.963 | 0.92 | 0.826 | 0.681 | 0.823 |
| AUUACCCUGGUCAUCAGGUGA [Fam2.1 aminoacylation ribozyme variant] | 5.07 | 4.45 | 3.03 | 5.53 | 29.8 | 2.6 |
| AUUACCCUGGUCAUCCAGCGA [Fam2.1 aminoacylation ribozyme variant] | 3.38 | 4.08 | 2.68 | 3.97 | 10.1 | 2.7 |
| AUUACCCUGGUCAUCCAGUGU [Fam2.1 aminoacylation ribozyme variant] | 3.14 | 3.15 | 1.81 | 3.1 | 7.23 | 1.95 |
| AUUACCCUGGUCAUCCGGUGA [Fam2.1 aminoacylation ribozyme variant] | 8.7 | 9.32 | 6.25 | 9.05 | 52.5 | 6.78 |
| AUUACCCUGGUCAUCCUGUGA [Fam2.1 aminoacylation ribozyme variant] | 1.39 | 1.71 | 1.07 | 1.52 | 2.81 | 1.51 |
| AUUACCCUGGUCAUCGACAGA [Fam2.1 aminoacylation ribozyme variant] | 0.716 | 0.738 | 0.774 | 0.676 | 0.705 | 1.04 |
| AUUACCCUGGUCAUCGACUUA [Fam2.1 aminoacylation ribozyme variant] | 0.636 | 0.544 | 0.818 | 0.414 | 0.425 | 0.596 |
| AUUACCCUGGUCAUCGAGCGC [Fam2.1 aminoacylation ribozyme variant] | 2.53 | 2.33 | 2.29 | 1.16 | 1.86 | 2.09 |
| AUUACCCUGGUCAUCGAGCGU [Fam2.1 aminoacylation ribozyme variant] | 4.25 | 4.95 | 2.36 | 4.83 | 4.33 | 2.77 |
| AUUACCCUGGUCAUCGAGUGU [Fam2.1 aminoacylation ribozyme variant] | 108 | 105 | 37.4 | 104 | 785 | 31.7 |
| AUUACCCUGGUCAUCGAUUAA [Fam2.1 aminoacylation ribozyme variant] | 0.935 | 0.933 | 1.1 | 0.619 | 0.508 | 1.02 |
| AUUACCCUGGUCAUCGAUUGG [Fam2.1 aminoacylation ribozyme variant] | 0.715 | 0.713 | 0.856 | 1.3 | 0.798 | 0.665 |
| AUUACCCUGGUCAUCGCGUAA [Fam2.1 aminoacylation ribozyme variant] | 4.04 | 2.97 | 3.48 | 5.11 | 28.4 | 2.73 |
| AUUACCCUGGUCAUCGGAUGA [Fam2.1 aminoacylation ribozyme variant] | 1.16 | 1.65 | 1.36 | 1.62 | 0.931 | 1.4 |
| AUUACCCUGGUCAUCGGGCGA [Fam2.1 aminoacylation ribozyme variant] | 8.99 | 10 | 4.62 | 8.14 | 20.1 | 4.15 |
| AUUACCCUGGUCAUCGGGGGA [Fam2.1 aminoacylation ribozyme variant] | 7.12 | 9.21 | 5.36 | 10.7 | 44.2 | 4.75 |
| AUUACCCUGGUCAUCGUGUAA [Fam2.1 aminoacylation ribozyme variant] | 1.07 | 1.26 | 1.18 | 0.503 | 0.847 | 1.13 |
| AUUACCCUGGUCAUCGUGUGC [Fam2.1 aminoacylation ribozyme variant] | 0.938 | 1.12 | 0.881 | 0.349 | 1.25 | 0.992 |
